# From the Immune Epitope Database (IEDB)
# pKd: −log10 of the molar value.
# Columns and labels:
# HLA-B*08:01 [1] = test: IEDB peptide-MHC binding, purified MHC/direct/fluorescence; filed as Kd, often an IC50 or EC50 that approximates it; ≥ and ≤ were set here for values at or beyond the usual limits of such assays; conditions: source organism: Variola virus
# HLA-A*01:01 [2] = test: as above; conditions: source organism: Camelpox virus M-96
# HLA-B*07:02 [3] = test: as above; conditions: source organism: Camelpox virus M-96
# HLA-A*11:01 [4] = test: as above; conditions: source organism: Camelpox virus M-96
# HLA-B*48:01 = test: as above; conditions: source organism: Camelpox virus M-96
# HLA-B*40:01 [5] = test: as above; conditions: source organism: Camelpox virus M-96
# HLA-B*08:03 = test: as above; conditions: source organism: Variola virus
# HLA-B*15:17 [6] = test: as above; conditions: source organism: Camelpox virus M-96
# HLA-A*03:01 [7] = test: as above; conditions: source organism: Camelpox virus M-96
# HLA-A*26:02 = test: as above; conditions: source organism: Variola virus
# HLA-B*57:01 [8] = test: as above; conditions: source organism: Camelpox virus M-96
# HLA-B*18:01 [9] = test: as above; conditions: source organism: Camelpox virus M-96
# HLA-B*58:01 [10] = test: as above; conditions: source organism: Camelpox virus M-96
# HLA-B*46:01 [11] = test: as above; conditions: source organism: Camelpox virus M-96
# HLA-A*31:01 = test: as above; conditions: source organism: Camelpox virus M-96
# HLA-B*15:01 [12] = test: as above; conditions: source organism: Camelpox virus M-96
# HLA-A*69:01 = test: as above; conditions: source organism: Camelpox virus M-96
# HLA-A*68:02 [13] = test: as above; conditions: source organism: Camelpox virus M-96
# HLA-A*02:01 = test: IEDB peptide-MHC binding, purified MHC/competitive/fluorescence; filed as Kd, often an IC50 or EC50 that approximates it; ≥ and ≤ were set here for values at or beyond the usual limits of such assays
# HLA-A*02:03 = test: as above
# HLA-A*26:03 = test: as above; conditions: source organism: Vaccinia virus Copenhagen
# HLA-C*07:02 = test: IEDB peptide-MHC binding, purified MHC/direct/fluorescence; filed as Kd, often an IC50 or EC50 that approximates it; ≥ and ≤ were set here for values at or beyond the usual limits of such assays; conditions: source organism: Vibrio cholerae
# HLA-B*08:01 [14] = test: IEDB peptide-MHC binding, purified MHC/competitive/fluorescence; filed as Kd, often an IC50 or EC50 that approximates it; ≥ and ≤ were set here for values at or beyond the usual limits of such assays; conditions: source organism: Vibrio cholerae
# HLA-A*01:01 [15] = test: as above; conditions: source organism: Vibrio cholerae
# HLA-A*30:02 = test: as above; conditions: source organism: Vibrio cholerae
# HLA-B*51:01 = test: as above; conditions: source organism: Vibrio cholerae
# HLA-B*27:05 = test: as above; conditions: source organism: Vibrio cholerae
# HLA-A*24:03 = test: as above; conditions: source organism: Vibrio cholerae
# HLA-B*07:02 [16] = test: as above; conditions: source organism: Vibrio cholerae
# HLA-A*11:01 [17] = test: as above; conditions: source organism: Vibrio cholerae
# HLA-B*40:01 [18] = test: as above; conditions: source organism: Vibrio cholerae
# HLA-A*66:01 = test: as above; conditions: source organism: Vibrio cholerae
# HLA-B*15:17 [19] = test: as above; conditions: source organism: Vibrio cholerae
# HLA-A*29:02 = test: as above; conditions: source organism: Vibrio cholerae
# HLA-A*23:01 = test: as above; conditions: source organism: Vibrio cholerae
# HLA-A*03:01 [20] = test: as above; conditions: source organism: Vibrio cholerae
# HLA-A*02:12 = test: as above; conditions: source organism: Vibrio cholerae
# HLA-B*57:01 [21] = test: as above; conditions: source organism: Vibrio cholerae
# HLA-B*18:01 [22] = test: as above; conditions: source organism: Vibrio cholerae
# HLA-B*58:01 [23] = test: as above; conditions: source organism: Vibrio cholerae
# HLA-B*53:01 = test: as above; conditions: source organism: Vibrio cholerae
# HLA-A*02:19 = test: as above; conditions: source organism: Vibrio cholerae
# HLA-A*26:01 = test: as above; conditions: source organism: Vibrio cholerae
# HLA-B*46:01 [24] = test: as above; conditions: source organism: Vibrio cholerae
# HLA-B*15:01 [25] = test: as above; conditions: source organism: Vibrio cholerae
# HLA-B*44:02 = test: as above; conditions: source organism: Vibrio cholerae
# HLA-B*14:02 = test: as above; conditions: source organism: Vibrio cholerae
# HLA-A*68:02 [26] = test: as above; conditions: source organism: Vibrio cholerae
# [27] = source organism: Vaccinia virus Copenhagen
# [28] = source organism: Vibrio cholerae
sequence,measurement,setting,value
GLYRLNFRR,pKd,HLA-B*08:01 [1],≤ 4.70
same,pKd,HLA-A*01:01 [2],≤ 4.70
same,pKd,HLA-B*07:02 [3],≤ 4.70
same,pKd,HLA-A*11:01 [4],6.63
same,pKd,HLA-B*48:01,≤ 4.70
same,pKd,HLA-B*40:01 [5],≤ 4.70
same,pKd,HLA-B*08:03,≤ 4.70
same,pKd,HLA-B*15:17 [6],≤ 4.70
same,pKd,HLA-A*03:01 [7],6.62
same,pKd,HLA-A*26:02,≤ 4.70
same,pKd,HLA-B*57:01 [8],≤ 4.70
same,pKd,HLA-B*18:01 [9],≤ 4.70
same,pKd,HLA-B*58:01 [10],≤ 4.70
same,pKd,HLA-B*46:01 [11],≤ 4.70
same,pKd,HLA-A*31:01,8.77
same,pKd,HLA-B*15:01 [12],≤ 4.70
same,pKd,HLA-A*69:01,≤ 4.70
same,pKd,HLA-A*68:02 [13],≤ 4.70
same,pKd,HLA-A*02:01; [27],6.02
same,pKd,HLA-A*02:03; [27],≤ 4.70
same,pKd,HLA-A*26:03,≤ 4.70
TRAPAPFPL,pKd,HLA-C*07:02,7.35
same,pKd,HLA-B*08:01 [14],≤ 5.30
same,pKd,HLA-A*01:01 [15],≤ 5.30
same,pKd,HLA-A*30:02,≤ 5.30
same,pKd,HLA-B*51:01,≤ 4.70
same,pKd,HLA-B*27:05,7.91
same,pKd,HLA-A*24:03,≤ 4.70
same,pKd,HLA-B*07:02 [16],≤ 5.30
same,pKd,HLA-A*02:01; [28],≤ 4.70
same,pKd,HLA-A*11:01 [17],≤ 5.30
same,pKd,HLA-B*40:01 [18],≤ 5.30
same,pKd,HLA-A*66:01,≤ 5.30
same,pKd,HLA-B*15:17 [19],≤ 4.70
same,pKd,HLA-A*29:02,≤ 4.70
same,pKd,HLA-A*23:01,5.46
same,pKd,HLA-A*03:01 [20],≤ 4.70
same,pKd,HLA-A*02:12,≤ 4.70
same,pKd,HLA-B*57:01 [21],≤ 4.70
same,pKd,HLA-B*18:01 [22],≤ 4.70
same,pKd,HLA-B*58:01 [23],≤ 5.30
same,pKd,HLA-B*53:01,≤ 5.30
same,pKd,HLA-A*02:19,≤ 4.70
same,pKd,HLA-A*02:03; [28],≤ 4.70
same,pKd,HLA-A*26:01,≤ 4.70
same,pKd,HLA-B*46:01 [24],≤ 4.70
same,pKd,HLA-B*15:01 [25],≤ 4.70
same,pKd,HLA-B*44:02,≤ 5.30
same,pKd,HLA-B*14:02,6.25
same,pKd,HLA-A*68:02 [26],6.89
